Key:
[1] = target: SARS-CoV-2 spike receptor-binding domain (RBD, amino acids 322 to 536), histidine-tagged (Example 2) (SARS-CoV-2, UniProt P0DTC2 322-536)
[2] = target: SARS-CoV1 recombinant S protein RBD region, 9x His tag (Example 1) (SARS-CoV1, UniProt P59594 306-527); assay: ELISA on RBD-coated plate (FIG. 3)
[3] = target: MERS-CoV recombinant S protein RBD region, 9x His tag (Example 1) (MERS-CoV, UniProt K9N5Q8 367-606); assay: ELISA on RBD-coated plate (FIG. 3)
[4] = target: T1, SARS-CoV2 S protein on VSV pseudovirus (SARS-CoV-2, UniProt P0DTC2 14-1273); assay: cell-based or functional assay
Authentic CoV2 [5] = target: T2, Authentic CoV2 (SARS-CoV-2 JPN/TY/WK-521); assay: cell-based or functional assay
[6] = target: T1, SARS-CoV2 S protein on VSV pseudovirus; assay: cell-based or functional assay; remark: listed apart in the source
Authentic CoV2 [7] = target: T2, Authentic CoV2; assay: cell-based or functional assay; remark: listed apart in the source
[8] = target: T3, SARS-CoV1 spike protein on VSV pseudovirus (SARS-CoV-1, UniProt P59594 14-1255); assay: cell-based or functional assay
[9] = target: T3, SARS-CoV1 spike protein on VSV …; assay: cell-based or functional assay; remark: listed apart in the source

B1: NT-108 (recombinant human IgG1/kappa antibody) (antibody, V domains shown)
VH: EVQLQQSGPGLVKPSQTLSLTCSISGDSVSSNSAAWNWIRQSPSRGLEWLGRTYYRSKWYNDYAGTVKSRIAINPDTSKNQFSLHLNSVTPEDTAVYFCARVISVAGYAFDIWGQGTMVTVSS
VL: EIVLTQSPGTLSLSPGERATLSCRASQSVSSTFLAWYQQKPGQAPRLLIYGASYMATGIPDRFSGSGSGTDFTLTISRLEPEDFAVYYCQQYGSSLTFGGGTKLEIK
EC50 [1]: 0.455 µg/mL
binding result [2]: no binding
binding result [3]: no binding
IC50, pseudovirus neutralization [4]: 6.1 ng/mL
IC50, authentic virus neutralization (Authentic CoV2 [5]): 40.3 ng/mL
IC50, pseudovirus neutralization [NT-108] [6]: 5.7 ng/mL
IC50, authentic virus neutralization [NT-108] (Authentic CoV2 [7]): 116 ng/mL

B2: NT-108, human IgG3 subclass (antibody, V domains shown)
VH: EVQLQQSGPGLVKPSQTLSLTCSISGDSVSSNSAAWNWIRQSPSRGLEWLGRTYYRSKWYNDYAGTVKSRIAINPDTSKNQFSLHLNSVTPEDTAVYFCARVISVAGYAFDIWGQGTMVTVSS
VL: EIVLTQSPGTLSLSPGERATLSCRASQSVSSTFLAWYQQKPGQAPRLLIYGASYMATGIPDRFSGSGSGTDFTLTISRLEPEDFAVYYCQQYGSSLTFGGGTKLEIK
IC50, pseudovirus neutralization [NT-108] [6]: 1 ng/mL
IC50, authentic virus neutralization [NT-108] (Authentic CoV2 [7]): 49 ng/mL

B3: NT-108, human IgG2 subclass (antibody, V domains shown)
VH: EVQLQQSGPGLVKPSQTLSLTCSISGDSVSSNSAAWNWIRQSPSRGLEWLGRTYYRSKWYNDYAGTVKSRIAINPDTSKNQFSLHLNSVTPEDTAVYFCARVISVAGYAFDIWGQGTMVTVSS
VL: EIVLTQSPGTLSLSPGERATLSCRASQSVSSTFLAWYQQKPGQAPRLLIYGASYMATGIPDRFSGSGSGTDFTLTISRLEPEDFAVYYCQQYGSSLTFGGGTKLEIK
IC50, pseudovirus neutralization [NT-108] [6]: 2 ng/mL
IC50, authentic virus neutralization [NT-108] (Authentic CoV2 [7]): 101 ng/mL

B4: NT-108, human IgG4 subclass (antibody, V domains shown)
VH: EVQLQQSGPGLVKPSQTLSLTCSISGDSVSSNSAAWNWIRQSPSRGLEWLGRTYYRSKWYNDYAGTVKSRIAINPDTSKNQFSLHLNSVTPEDTAVYFCARVISVAGYAFDIWGQGTMVTVSS
VL: EIVLTQSPGTLSLSPGERATLSCRASQSVSSTFLAWYQQKPGQAPRLLIYGASYMATGIPDRFSGSGSGTDFTLTISRLEPEDFAVYYCQQYGSSLTFGGGTKLEIK
IC50, pseudovirus neutralization [NT-108] [6]: 3.1 ng/mL
IC50, authentic virus neutralization [NT-108] (Authentic CoV2 [7]): 116 ng/mL

B5: NT-193 (recombinant human IgG1/kappa antibody) (antibody, V domains shown)
VH: EVQLQQWGAGLLKPSETLSLTCAVYGGSFSGYYWSWIRQPPGKGLEWIGEINHSGSTNYNPSLKSRVTISVDTSKNQFSLKLSSVTAADTAVYYCARGWDLDYYYGMDVWGQGTTVTVSS
VL: DIRMTQSPSAMSASVGDRVTVTCRASQGIGNYLAWFQLKPGKVPKRLIYAASSLQSGVPARFSGGGSGTEFTLTISSLQPEDFATYYCLQHGFLPWTFGQGTKLEIK
IC50 of the neutralizing activity against SARS-CoV (pseudovirus) [8]: 13 ng/mL
IC50, pseudovirus neutralization [4]: 20.9 ng/mL
IC50, authentic virus neutralization (Authentic CoV2 [5]): 85.1 ng/mL
IC50, pseudovirus neutralization [9]: 6.1 ng/mL
IC50, pseudovirus neutralization [NT-193] [6]: 11.1 ng/mL
IC50, authentic virus neutralization [NT-193] (Authentic CoV2 [7]): 241 ng/mL

B6: NT-193, human IgG3 subclass (antibody, V domains shown)
VH: EVQLQQWGAGLLKPSETLSLTCAVYGGSFSGYYWSWIRQPPGKGLEWIGEINHSGSTNYNPSLKSRVTISVDTSKNQFSLKLSSVTAADTAVYYCARGWDLDYYYGMDVWGQGTTVTVSS
VL: DIRMTQSPSAMSASVGDRVTVTCRASQGIGNYLAWFQLKPGKVPKRLIYAASSLQSGVPARFSGGGSGTEFTLTISSLQPEDFATYYCLQHGFLPWTFGQGTKLEIK
IC50, pseudovirus neutralization [NT-193] [6]: 1 ng/mL
IC50, authentic virus neutralization [NT-193] (Authentic CoV2 [7]): 127 ng/mL

B7: NT-193, human IgG4 subclass (antibody, V domains shown)
VH: EVQLQQWGAGLLKPSETLSLTCAVYGGSFSGYYWSWIRQPPGKGLEWIGEINHSGSTNYNPSLKSRVTISVDTSKNQFSLKLSSVTAADTAVYYCARGWDLDYYYGMDVWGQGTTVTVSS
VL: DIRMTQSPSAMSASVGDRVTVTCRASQGIGNYLAWFQLKPGKVPKRLIYAASSLQSGVPARFSGGGSGTEFTLTISSLQPEDFATYYCLQHGFLPWTFGQGTKLEIK
IC50, pseudovirus neutralization [NT-193] [6]: 4.4 ng/mL
IC50, authentic virus neutralization [NT-193] (Authentic CoV2 [7]): 247 ng/mL

B8: NT-193, human IgG2 subclass (antibody, V domains shown)
VH: EVQLQQWGAGLLKPSETLSLTCAVYGGSFSGYYWSWIRQPPGKGLEWIGEINHSGSTNYNPSLKSRVTISVDTSKNQFSLKLSSVTAADTAVYYCARGWDLDYYYGMDVWGQGTTVTVSS
VL: DIRMTQSPSAMSASVGDRVTVTCRASQGIGNYLAWFQLKPGKVPKRLIYAASSLQSGVPARFSGGGSGTEFTLTISSLQPEDFATYYCLQHGFLPWTFGQGTKLEIK
IC50, pseudovirus neutralization [NT-193] [6]: 6.5 ng/mL
IC50, authentic virus neutralization [NT-193] (Authentic CoV2 [7]): 212 ng/mL
